{"source": "paper PMC9898208", "assay_in_all_cases": "single-channel current recording", "key": {"[1]": {"target": "OmpG^L3/L6-SA1.1 (E. coli) (UniProt P76045)", "sequence (P76045 22-301)": "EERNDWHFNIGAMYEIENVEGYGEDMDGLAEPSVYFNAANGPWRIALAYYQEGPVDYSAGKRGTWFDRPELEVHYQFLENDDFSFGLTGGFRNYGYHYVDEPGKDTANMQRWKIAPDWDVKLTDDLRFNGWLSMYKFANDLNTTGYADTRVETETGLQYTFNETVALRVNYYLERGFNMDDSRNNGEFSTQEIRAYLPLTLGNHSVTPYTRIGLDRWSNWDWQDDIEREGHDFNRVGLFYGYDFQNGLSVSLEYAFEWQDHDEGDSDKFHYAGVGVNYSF"}, "[2]": {"target": "OmpG^L6-SA1.1 (E. coli) (UniProt P76045)", "sequence (P76045 22-301)": "as above"}, "[3]": {"target": "OmpG^L3-FLAG/L6-SA1.1 (E. coli) (UniProt P76045)", "sequence (P76045 22-301)": "as above"}}}
{"substance": "streptavidin (from UniProt P22629 25-183) (natural protein)", "values": [{"measurement": "Kd", "setting": "[1]", "result": 0.03, "unit": "µM"}, {"measurement": "k'Off of the sub-events within a discrete binding event", "setting": "[1]", "result": 0.7, "unit": "s⁻¹"}, {"measurement": "k'On 1 of the sub-events (rebinding)", "setting": "[1]", "result": "3.9e+10", "unit": "M⁻¹ s⁻¹"}, {"measurement": "k'On 2 of the sub-events (rebinding)", "setting": "[1]", "result": "4.4e+09", "unit": "M⁻¹ s⁻¹"}, {"measurement": "koff", "setting": "[1]", "result": 0.01, "unit": "s⁻¹"}, {"measurement": "kon", "setting": "[1]", "result": 326000, "unit": "M⁻¹ s⁻¹"}, {"measurement": "tau'On 1 of the sub-events (rebinding)", "setting": "[1]", "result": 2.56, "unit": "ms"}, {"measurement": "tau'On 2 of the sub-events (rebinding)", "setting": "[1]", "result": 22.9, "unit": "ms"}, {"measurement": "Kd", "setting": "[2]", "result": 10.1, "unit": "µM"}, {"measurement": "koff", "setting": "[2]", "result": 0.78, "unit": "s⁻¹"}, {"measurement": "kon", "setting": "[2]", "result": 77600, "unit": "M⁻¹ s⁻¹"}, {"measurement": "Kd", "setting": "[3]", "result": 7.51, "unit": "µM"}, {"measurement": "koff", "setting": "[3]", "result": 0.55, "unit": "s⁻¹"}, {"measurement": "kon", "setting": "[3]", "result": 72200, "unit": "M⁻¹ s⁻¹"}]}
